Among the data in patent publication US20180273587A1 (AILERON THERAPEUTICS, published 2018) are Ki values, retold here.

Positions of bridges follow the written chain, without caps; N, C: chain ends. Non-standard residues stand in square brackets, D forms with d. R8 = C=CCCCCCC[C@@](C)(N)C(=O)O; S5 = C=CCCC[C@](C)(N)C(=O)O; Aib = CC(C)(N)C(=O)O

Test [1] deals with MCL-1 (UniProt Q07820). As to the kind of experiment: Ki (Table 8); method not stated.
The target of test [2] is BCL-2 (UniProt P10415). As to the kind of experiment: Ki (Table 8); method not stated.
In test [3] the target is BCL-XL (UniProt Q07817). The experiment in a line: Ki (Table 8); method not stated.
In test [4] the target is T1, BCL-2 (UniProt P10415 1-217, limits assumed).
T1 construct: Target of the Ki columns
The experiment in a line: Ki (Table 8); method not stated.

The target in test [5] is T2, BCL-XL (UniProt Q07817 1-209).
T2 construct: Target of the Ki columns
The experiment in a line: Ki (Table 8); method not stated.

In test [6] the target is T3, MCL-1 (UniProt Q07820 172-327, limits assumed).
T3 construct: Target of the Ki columns; also called Myeloid cell leukemia 1
As to the kind of experiment: Ki (Table 8); method not stated.

Test [7] has as its target T1, BCL-2. The experiment in a line: Ki (Table 6); method not stated.
The target in test [8] is T2, BCL-XL. The experiment in a line: Ki (Table 6); method not stated.
The target of test [9] is T3, MCL-1. The experiment in a line: Ki (Table 6); method not stated.
The target of test [10] is T1, BCL-2. As to the kind of experiment: inhibitory constant assay (Table 7); method not stated.
Test [11] deals with T2, BCL-XL. The description is as above.
Test [12] concerns the target T3, MCL-1. The description is as above.

T1 sequence (P10415 1-217 limits assumed): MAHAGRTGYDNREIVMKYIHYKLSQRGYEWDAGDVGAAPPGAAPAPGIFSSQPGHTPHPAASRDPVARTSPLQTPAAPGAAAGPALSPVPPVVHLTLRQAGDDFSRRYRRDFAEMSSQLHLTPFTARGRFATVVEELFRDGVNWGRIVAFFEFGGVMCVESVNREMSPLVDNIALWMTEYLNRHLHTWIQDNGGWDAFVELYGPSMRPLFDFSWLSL
T2 sequence (Q07817 1-209): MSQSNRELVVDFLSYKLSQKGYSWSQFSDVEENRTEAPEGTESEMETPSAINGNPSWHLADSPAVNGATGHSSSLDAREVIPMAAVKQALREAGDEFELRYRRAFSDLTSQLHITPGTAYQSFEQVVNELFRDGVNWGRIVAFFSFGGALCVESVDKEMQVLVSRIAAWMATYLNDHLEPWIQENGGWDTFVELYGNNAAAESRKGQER
T3 sequence (Q07820 172-327 limits assumed): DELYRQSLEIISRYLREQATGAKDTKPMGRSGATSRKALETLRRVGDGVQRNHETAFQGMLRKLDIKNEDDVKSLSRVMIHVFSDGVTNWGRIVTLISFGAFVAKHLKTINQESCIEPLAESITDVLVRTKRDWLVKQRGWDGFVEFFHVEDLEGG
BCL-2 (UniProt P10415), sequence (P10415 1-217 limits assumed): as the sequence (P10415 1-217 limits assumed) above
BCL-XL (UniProt Q07817), sequence (Q07817 1-209): as the sequence (Q07817 1-209) above
MCL-1 (UniProt Q07820), sequence (Q07820 172-327 limits assumed): as the sequence (Q07820 172-327 limits assumed) above

As for BIM-SAHBA1 (peptide), the Ki in [1] is 2.7 nM; in test [2], 29.6 nM; in test [3], 6.2 nM.

B1: Cross-linked peptide #15 (peptide)
peptide: Ac-IWIAQALR[R8]IGDEFN[S5]YYARR-NH2
modifications: staple 9-16
SMILES: CC[C@H](C)[C@H](NC(C)=O)C(=O)N[C@@H](Cc1c[nH]c2ccccc12)C(=O)N[C@H](C(=O)N[C@@H](C)C(=O)N[C@@H](CCC(N)=O)C(=O)N[C@@H](C)C(=O)N[C@@H](CC(C)C)C(=O)N[C@@H](CCCNC(=N)N)C(=O)N[C@]1(C)CCCCCCC=CCCC[C@@](C)(C(=O)N[C@@H](Cc2ccc(O)cc2)C(=O)N[C@@H](Cc2ccc(O)cc2)C(=O)N[C@@H](C)C(=O)N[C@@H](CCCNC(=N)N)C(=O)N[C@@H](CCCNC(=N)N)C(N)=O)NC(=O)[C@H](CC(N)=O)NC(=O)[C@H](Cc2ccccc2)NC(=O)[C@H](CCC(=O)O)NC(=O)[C@H](CC(=O)O)NC(=O)CNC(=O)[C@H]([C@@H](C)CC)NC1=O)[C@@H](C)CC
Take B1: the results for the Ki in test [4], in [5] and in test [6] were 12.8 nM, 5.2 nM and 10.6 nM, respectively.

B2: Cross-linked peptide #13 (peptide)
peptide: Ac-IWIAQAAR[R8]IGDAFN[S5]YYA-NH2
modifications: staple 9-16
SMILES: CC[C@H](C)[C@H](NC(C)=O)C(=O)N[C@@H](Cc1c[nH]c2ccccc12)C(=O)N[C@H](C(=O)N[C@@H](C)C(=O)N[C@@H](CCC(N)=O)C(=O)N[C@@H](C)C(=O)N[C@@H](C)C(=O)N[C@@H](CCCNC(=N)N)C(=O)N[C@]1(C)CCCCCCC=CCCC[C@@](C)(C(=O)N[C@@H](Cc2ccc(O)cc2)C(=O)N[C@@H](Cc2ccc(O)cc2)C(=O)N[C@@H](C)C(N)=O)NC(=O)[C@H](CC(N)=O)NC(=O)[C@H](Cc2ccccc2)NC(=O)[C@H](C)NC(=O)[C@H](CC(=O)O)NC(=O)CNC(=O)[C@H]([C@@H](C)CC)NC1=O)[C@@H](C)CC
Regarding B2, the Ki is 100000 nM in [7], 100000 nM in test [8] and 501 nM in test [9].

B3: Cross-linked peptide #16 (peptide)
peptide: IWIAQALRALGDAFNAYFA
modifications: not fully specified; N-terminal Ac; $r8 at residue 9 (column 154) and $ at residue 16 (column 161), crosslinked; hL at residue 10 (column 155); F4F at residue 18 (column 163); C-terminal NH2
In the case of B3, the results for the Ki in [5] and in [6] were 13 nM and 27 nM, respectively.

B4: Cross-linked peptide #14 (peptide)
peptide: Ac-RWIAQALR[S5]IGD[S5]LN[Aib]FYAHH-NH2
modifications: staple 9-13
SMILES: CC[C@H](C)[C@H](NC(=O)[C@H](Cc1c[nH]c2ccccc12)NC(=O)[C@H](CCCNC(=N)N)NC(C)=O)C(=O)N[C@@H](C)C(=O)N[C@@H](CCC(N)=O)C(=O)N[C@@H](C)C(=O)N[C@@H](CC(C)C)C(=O)N[C@@H](CCCNC(=N)N)C(=O)N[C@@]1(C)CCCC=CCCC[C@@](C)(C(=O)N[C@@H](CC(C)C)C(=O)N[C@@H](CC(N)=O)C(=O)NC(C)(C)C(=O)N[C@@H](Cc2ccccc2)C(=O)N[C@@H](Cc2ccc(O)cc2)C(=O)N[C@@H](C)C(=O)N[C@@H](Cc2c[nH]cn2)C(=O)N[C@@H](Cc2c[nH]cn2)C(N)=O)NC(=O)[C@H](CC(=O)O)NC(=O)CNC(=O)[C@H]([C@@H](C)CC)NC1=O
For B4, the Ki in [4] is 215 nM; in test [5], 114 nM; in test [6] it was 17 nM; in test [10] it was 151 nM; in test [11], 178 nM; in [12], 11 nM.

B5: Cross-linked peptide #5 (peptide)
peptide: IWIAQALXAIGDAFNAYYA
modifications: N-terminal Ac; Cit at residue 8 (column 153); $r8 at residue 9 (column 154) and $ at residue 16 (column 161), crosslinked; C-terminal NH2
On to B5, for which the Ki in test [7] was 212 nM; in test [8], 110 nM; in [9] it was 7.5 nM.
